Like-named read-outs stand apart in the source and are kept apart here.
What was measured:
[1] = system: HPPD polypeptides (wild-type SEQ ID NO:1 and mutants)
[2] = system: E. coli cells expressing an HPPD polypeptide; experiment: Brown color bioassay in liquid culture, residual brown color formation (BCF), OD440 after 96 hours; type: cell-based; conditions: for Control BCF OD440nm: brown color formation in absence of Cmpd. 1, culture supernatant after 96 hours, 5 mM HPP; for Residual BCF OD440nm [%]: brown color formation with Cmpd. 1 (1000 μM) relative to without, after 96 hours
Protocol: In an additional experiment, mutant HPPD polypeptides were analyzed using the principle of a colorimetric brown color assay (as, for example, described in U.S. Pat. No. 6,768,044). Bacterial cells expressing the HPPD polypeptides according to this invention were assayed in 96 well plate format (Nunc® 96 DeepWell™ plate, Sigma-Aldrich, St. Louis, USA) for HPPD polypeptides with improved HPPD inhibitor herbicide tolerance.
E. coli cells were grown in liquid LB medium (Carl Roth GmbH+Co. KG, Karlsruhe, Germany) containing the selection agent for the expression vector pSE420(RI)NX (WO2014/043435) and 5 mM para-hydroxyphenylpyruvate (HPP; Sigma-Aldrich, St. Louis, USA), in the presence of absence of the HPPD inhibitor herbicide e.g. Cmpd. 1 (1000 μM). An overnight culture of E. coli culture expressing one of the respective HPPD polypeptides according to this invention were adjusted to an OD600 of 0.3-0.5 in a final volume of 500 μL and incubated at 30 degree Celsius. Residual brown color formation was determined by measuring the brown color formation (BCF) in the presence and absence of Cmpd. […] Therefore, after 96 hours the culture was centrifuged and the supernatant of the culture was used to measure the optical density of the soluble brown pigment formation at 440 nm (OD440 nm).

[3] = in the presence of Cmpd. 1, 15 μM inhibitor, high substrate concentration, kapp normalized to kapp without inhibitor
[4] = in the presence of Cmpd. 1, 15 μM inhibitor, high substrate concentration, total change in signal normalized to no inhibitor
[5] = in the presence of Cmpd. 2, 15 μM inhibitor, high substrate concentration, kapp normalized to kapp without inhibitor
[6] = in the presence of Cmpd. 2, 15 μM inhibitor, high substrate concentration, total change in signal normalized to no inhibitor
[7] = in the presence of diketonitrile (DKN), 60 μM inhibitor, high substrate concentration, kapp normalized to kapp without inhibitor
[8] = in the presence of diketonitrile (DKN), 60 μM inhibitor, high substrate concentration, total change in signal normalized to no inhibitor
[9] = in the presence of mesotrione (MST), 60 μM inhibitor, high substrate concentration, kapp normalized to kapp without inhibitor
[10] = in the presence of mesotrione (MST), 60 μM inhibitor, high substrate concentration, total change in signal normalized to no inhibitor

| Molecule | Residual activity [1, 3] [%] | Residual turnover [1, 4] [%] | Residual activity [1, 5] [%] | Residual turnover [1, 6] | Residual activity [1, 7] | Residual turnover [1, 8] | Residual activity [1, 9] [%] | Residual turnover [1, 10] | Control BCF OD440nm [2] | Residual BCF OD440nm [%] [2] [%] | Residual activity ([1]; kapp in presence of 50 μM Cmpd. 1, normalised to kapp without inhibitor, low substrate concentration) [%] | Residual turnover ([1]; total change in signal in presence of 50 μM Cmpd. 1, normalised to that without inhibitor, low substrate concentration) [%] |
| --- | --- | --- | --- | --- | --- | --- | --- | --- | --- | --- | --- | --- |
| 14 (protein, mutant HPPD polypeptide) MADLYENPMGLMGFEFIEFASPTPGTLEPIFEIMGFTKVATHRSKNVHLYRQGEINLILNNEPNSIASYFAAEHGPSVCGMAFRVKDSQKAYNRALELGAQPIHIDTGPMELNLPAIKGIGGAPLYLIDRFGEGSSIYDIDFVYLEGVERNPVGAGLKVIDHLTHNVYRGRMVYWANFYEKLFNFREARYFDIKGEYTGLTSKAMSAPDGMIRIPLNEESSKGAGQIEEFLMQFNGEGIQHVAFLTDDLVKTWDALKKIGMRFMTAPPDTYYEMLEGRLPDHGEPVDQLQARGILLDGSSVEGDKRLLLQIFSETLMGPVFFEFIQRKGHDGFGPDSFKVLFESVERDQVRRGVLTAD | 44 | 60 | 82 | 92% | 91% | n.i | 70 | 89% | 1.42 | 63 | – | – |
| 19 (protein, mutant HPPD polypeptide) MADLYENPMGLMGFEFIEFASPTPGTLEPIFEIMGFTKVATHRSKNVHLYRQGEINLILNNEPNSIASYFAAEHGPSVCGMAFRVKDSQKAYNRALELGAQPIHIDTGPMELNLPAIKGIGGAPLYLIDRFGEGSSIYDIDFVYLEGVERNPVGAGLKVIDHLTHNVYRGRMVYWANFYEKLFNFREARYFDIKGEYTGLTSKAMSAPDGMIRIPLNEESSKGAGQIEEFLMQFNGEGIQHVAFLTDDLVKTWDALKKIGMRFRTAPGDEYYEMLEGRLPDHGEPVDQLQARGILLDGSSVEGDKRLLLQIFSETLMGPVFFEFIQRKGHDGFGPDSFKVLFESVERDQVRRGVLTAD | 68 | 79 | 92 | 93% | n.i. (no inhibition was observed under the given conditions) | n.i | 51 | 78% | 1.65 | 60 | 67 | 88 |
| 30 (protein, mutant HPPD polypeptide) MADLYENPMGLMGFEFIEFASPTPGTLEPIFEIMGFTKVATHRSKNVHLYRQGEINLILNNEPNSIASYFAAEHGPSVCGMAFRVKDSQKAYNRALELGAQPIHIDTGPMELNLPAIKGIGGAPLYLIDRFGEGSSIYDIDFVYLEGVERNPVGAGLKVIDHLTHNVYRGRMVYWANFYEKLFNFREARYFDIKGEYTGLTSKAMSAPDGMIRIPLNEESSKGAGQIEEFLMQFNGEGIQHVAFLTDDLVKTWDALKKIGMRFMTAPSDSYYEMLEGRLPDHGEPVDQLQARGILLDGSSVEGDKRLLLQIFSETLMGPVFFEFIQRKGDDGFGPHSFKVLFESKERDQVRRGVLTAD | 39 | 65 | 95 | n.i. | n.i. (no inhibition was observed under the given conditions) | n.i. | 87 | n.i. | 1.70 | 56 | – | – |
| 29 (protein, mutant HPPD polypeptide) MADLYENPMGLMGFEFIEFASPTPGTLEPIFEIMGFTKVATHRSKNVHLYRQGEINLILNNEPNSIASYFAAEHGPSVCGMAFRVKDSQKAYNRALELGAQPIHIDTGPMELNLPAIKGIGGAPLYLIDRFGEGSSIYDIDFVYLEGVERNPVGAGLKVIDHLTHNVYRGRMVYWANFYEKLFNFREARYFDIKGEYTGLTSKAMSAPDGMIRIPLNEESSKGAGQIEEFLMQFNGEGIQHVAFLTDDLVKTWDALKKIGMRFMTAPSDSYYEMLEGRLPDHGEPVDQLQARGILLDGSSVEGDKRLLLQIFSETLMGPVFFEFIQRKGDDGFGPHSFKVLFESVERDQVRRGVLTAD | 33 | 59 | 85 | n.i. | 94% | n.i. | 79 | 95% | 2.03 | 42 | – | – |
| 24 (protein, mutant HPPD polypeptide) MADLYENPMGLMGFEFIEFASPTPGTLEPIFEIMGFTKVATHRSKNVHLYRQGEINLILNNEPNSIASYFAAEHGPSVCGMAFRVKDSQKAYNRALELGAQPIHIDTGPMELNLPAIKGIGGAPLYLIDRFGEGSSIYDIDFVYLEGVERNPVGAGLKVIDHLTHNVYRGRMVYWANFYEKLFNFREARYFDIKGEYTGLTSKAMSAPDGMIRIPLNEESSKGAGQIEEFLMQFNGEGIQHVAFLTDDLVKTWDALKKIGMRFMTAPPDTYYEMLEGRLPDHGEPVDQLQARGILLDGSSVEGDKRLLLQIFSETLMGPVFFEFIQRKGDDGFGPHSFKVLFESVERDQVRRGVLTAD | 28 | 57 | 90 | n.i. | 93% | n.i. | 51 | 68% | 1.56 | 48 | – | – |
| 21 (protein, mutant HPPD polypeptide) MADLYENPMGLMGFEFIEFASPTPGTLEPIFEIMGFTKVATHRSKNVHLYRQGEINLILNNEPNSIASYFAAEHGPSVCGMAFRVKDSQKAYNRALELGAQPIHIDTGPMELNLPAIKGIGGAPLYLIDRFGEGSSIYDIDFVYLEGVERNPVGAGLKVIDHLTHNVYRGRMVYWANFYEKLFNFREARYFDIKGEYTGLTSKAMSAPDGMIRIPLNEESSKGAGQIEEFLMQFNGEGIQHVAFLTDDLVKTWDALKKIGMRFMTAPPDTYYEMLEGRLPDHGEPVDQLQARGILLDGSSVEGDKRLLLQIFSETLMGPVFFEFIQRKGDDGFGPHSFKALFESIERDQVRRGVLTAD | 18 | 30 | 73 | 84% | 81% | n.i | 62 | 89% | 0.99 | 65 | – | – |
| 22 (protein, mutant HPPD polypeptide) MADLYENPMGLMGFEFIEFASPTPGTLEPIFEIMGFTKVATHRSKNVHLYRQGEINLILNNEPNSIASYFAAEHGPSVCGMAFRVKDSQKAYNRALELGAQPIHIDTGPMELNLPAIKGIGGAPLYLIDRFGEGSSIYDIDFVYLEGVERNPVGAGLKVIDHLTHNVYRGRMVYWANFYEKLFNFREARYFDIKGEYTGLTSKAMSAPDGMIRIPLNEESSKGAGQIEEFLMQFNGEGIQHVAFLTDDLVKTWDALKKIGMRFMTAPPDTYYEMLEGRLPDHGEPVDQLQARGILLDGSSVEGDKRLLLQIFSETLMGPVFFEFIQRKGDDGFGPHSFKVLFESIERDQVRRGVLTAD | 26 | 53 | 90 | n.i. | n.i | n.i. | 77 | 99% | 1.67 | 58 | – | – |
| 7 (protein, mutant HPPD polypeptide) MADLYENPMGLMGFEFIEFASPTPGTLEPIFEIMGFTKVATHRSKNVHLYRQGEINLILNNEPNSIASYFAAEHGPSVCGMAFRVKDSQKAYNRALELGAQPIHIDTGPMELNLPAIKGIGGAPLYLIDRFGEGSSIYDIDFVYLEGVERNPVGAGLKVIDHLTHNVYRGRMVYWANFYEKLFNFREARYFDIKGEYTGLTSKAMSAPDGMIRIPLNEESSKGAGQIEEFLMQFNGEGIQHVAFLTDDLVKTWDALKKIGMRFMTAPPDTYYEMLEGRLPDHGEPVDQLQARGILLDGSSVEGDKRLLLQIFSETLMGPVFFEFIQRKGDDGFGPDSFKALFESIERDQVRRGVLTAD | 27 | 38 | 75 | 83% | 79% | 92% | 70 | 85% | 1.83 | 40 | – | – |

— US10597674B2, “HPPD variants and methods of use” (BASF Agricultural Solutions Seed, US LLC, priority 2015, dated 2020)
